Measured values from paper PMC3206016, “Putting into Practice Domain-Linear Motif Interaction Predictions for Exploration of Protein Networks” (PLoS ONE, 2011).
Where “and” joins values, the source holds several entries; their conditions need not be identical. Identical values can stand only once. Ends that are not written are not given here. * marks the point of attachment. Biotin = O=C1N[C@H]2[C@H](CS[C@H]2CCCCC(=O)*)N1

B1: 16E6 (long peptide of HPV16 early protein E6: the last ten residues) (peptide)
peptide: Biotin-SSRTRRETQL
notes: source: synthetic peptide (JPT Peptide Technologies)
B2: TTC24_10 (long peptide of Tetratricopeptide repeat protein 24: the last ten residues) (peptide)
peptide: Biotin-PMESGICTIV
notes: also called TTC24 long; source: synthetic peptide (JPT Peptide Technologies)
B3: TAX1_10 (long peptide of the Trans-activating transcriptional regulatory protein of HTLV-1: the last ten residues) (peptide)
peptide: Biotin-SEKHFRETEV
notes: also called TAX1 long; HTLV1 Tax1; source: synthetic peptide (JPT Peptide Technologies)
B4: TANC1_10 (long peptide of Tetratricopeptide repeat, ankyrin repeat and coiled-coil domain-containing protein 1: the last ten residues) (peptide)
peptide: Biotin-PKRSFIESNV
notes: also called TANC1 long; source: synthetic peptide (JPT Peptide Technologies)

Legend:
Assay in all cases: SPR
Conditions in all cases: both partners purified
[1] = biological target: T1, SCRIB-3/4 (MBP fusion of the third of the four PDZ domains of SCRIB) (human, UniProt Q14160-1 997-1093)
T1 construct: also called MBP-PDZ analyte SCRIB-3/4; source: E. coli BL21 DE3, purified (amylose column, Superdex 75 gel filtration)
T1 sequence (looked up): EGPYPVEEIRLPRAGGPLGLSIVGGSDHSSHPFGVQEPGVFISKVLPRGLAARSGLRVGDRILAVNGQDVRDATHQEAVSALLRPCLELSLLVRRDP

[2] = biological target: T2, SCRIB-34/4 (MBP fusion of the tandem of the third and fourth PDZ domains of SCRIB) (human, UniProt Q14160-1 997-1193)
T2 construct: also called MBP-PDZ analyte SCRIB-34/4; tandem PDZ construct; source: E. coli BL21 DE3, purified (amylose column, Superdex 75 gel filtration)
T2 sequence (looked up): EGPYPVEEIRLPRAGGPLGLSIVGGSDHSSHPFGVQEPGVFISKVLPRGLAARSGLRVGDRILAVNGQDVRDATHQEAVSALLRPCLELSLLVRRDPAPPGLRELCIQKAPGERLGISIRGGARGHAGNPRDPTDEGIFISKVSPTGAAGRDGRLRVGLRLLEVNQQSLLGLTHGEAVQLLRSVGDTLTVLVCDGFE

[3] = biological target: T1, SCRIB-3/4 (MBP fusion of the third of …); remark: listed apart in the source
[4] = biological target: T3, MAGI1-2/6 (MBP fusion of the second of the six PDZ domains of MAGI1) (mouse, UniProt Q6RHR9-1 448-572)
T3 construct: source: E. coli BL21 DE3, purified (amylose column, Superdex 75 gel filtration)

[5] = biological target: T2, SCRIB-34/4 (MBP fusion of the tandem of …); remark: listed apart in the source
[6] = biological target: T4, MAGI1-3/6 (MBP fusion of the third of the six PDZ domains of MAGI1) (mouse, UniProt Q6RHR9-1 613-752)
T4 construct: source: E. coli BL21 DE3, purified (amylose column, Superdex 75 gel filtration)

[7] = biological target: T1, SCRIB-3/4 (MBP fusion of the third of …); remark: listed apart in the source
[8] = biological target: T2, SCRIB-34/4 (MBP fusion of the tandem of …); remark: listed apart in the source
[9] = biological target: T4, MAGI1-3/6 (MBP fusion of the third of …); remark: listed apart in the source
[10] = biological target: T5, SCRIB-4/4 (MBP fusion of the fourth of the four PDZ domains of SCRIB) (human, UniProt Q14160-1 1097-1193)
T5 construct: also called MBP-PDZ analyte SCRIB-4/4; source: E. coli BL21 DE3, purified (amylose column, Superdex 75 gel filtration)
T5 sequence (looked up): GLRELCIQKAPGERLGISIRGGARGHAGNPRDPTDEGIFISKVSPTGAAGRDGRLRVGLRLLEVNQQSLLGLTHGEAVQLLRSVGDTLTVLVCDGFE

T3 sequence (Q6RHR9 448-572): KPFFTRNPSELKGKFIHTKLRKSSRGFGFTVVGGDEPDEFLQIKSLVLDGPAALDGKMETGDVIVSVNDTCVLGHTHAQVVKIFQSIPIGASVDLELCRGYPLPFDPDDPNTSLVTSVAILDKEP
T4 sequence (Q6RHR9 613-752): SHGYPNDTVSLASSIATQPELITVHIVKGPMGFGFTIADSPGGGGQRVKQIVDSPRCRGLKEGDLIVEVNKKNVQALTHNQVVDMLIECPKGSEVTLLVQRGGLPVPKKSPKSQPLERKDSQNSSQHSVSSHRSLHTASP

Row | Binder | Kd [1] [µM] | Kd [2] [µM] | Kd [3] [µM] | Kd [4] | Kd [5] [µM] | Kd [6] [µM] | Kd [7] [µM] | Kd [8] [µM] | Kd [9] [µM] | Kd [10] [µM]
1 | B1 | 15 | 3 | 18 | 3 µM and 9 µM | 3 | – | – | – | – | –
2 | B2 | – | – | – | – | – | 37 | 117 | 49 | – | –
3 | B3 | – | – | 29 | 53 µM | – | – | – | – | 1230 | 48
4 | B4 | – | – | 39 | 287 µM | 2 | – | – | – | – | –
